From the supplement of paper PMC9732359
± gives the uncertainty stated by the source.

Experiment: protein stability index of a GFP-peptide fusion (yeast GPS) (PSI 1-4); higher = more stable; sorted into four equal gates, so the index is relative within each strain
Procedure, shortened: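 Peptides tiling yeast proteins in 17-residue segments were fused downstream of GFP, with Cherry expressed from the same plasmid. As a pooled library in yeast, mid-log cultures grown in leucine-free medium were sorted into four equal gates by GFP/Cherry fluorescence ratio. Gate plasmids were PCR-amplified and Illumina-sequenced, and barcodes linked reads to strains. Each peptide received a protein stability index equal to the sum of each gate's read frequency times its gate number.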

| Sequence | protein stability index (doa10∆) | protein stability index (pdr5∆) | protein stability index (san1∆) | protein stability index (ubr1∆) |
| --- | --- | --- | --- | --- |
| INHKINNKITQLIAKNV [SIR3] | 1.58 ± 0.063 | 1.7 ± 0.062 | 2.22 ± 0.077 | 2.16 ± 0.064 |
| GSGLLKLSEIILNINNS [SWI1] | 2.69 ± 0.089 | 2.69 ± 0.081 | 2.4 ± 0.098 | 2.85 ± 0.081 |
| DQGNGWLYVYETPNQDA [RPN6] | 2.36 ± 0.061 | 2.01 ± 0.051 | 2.23 ± 0.067 | 2.38 ± 0.037 |
| RDHKSYSQSPPRSPGRS [SMC4] | 2.59 ± 0.092 | 2.98 ± 0.081 | 3.01 ± 0.17 | 2.87 ± 0.052 |
| VDPFDSDEEESVLDEQE [SNU114] | 3.36 ± 0.095 | 3.5 ± 0.12 | 3.39 ± 0.15 | 3.36 ± 0.073 |
| RIIGLSATLPNYEDVGR [BRR2] | 2.23 ± 0.045 | 2.18 ± 0.039 | 2.33 ± 0.044 | 1.94 ± 0.039 |
| QKQWDDIAFVLNNLPYK [YCS4] | 2.48 ± 0.077 | 3.09 ± 0.082 | 2.97 ± 0.11 | 3.18 ± 0.086 |
| ADINLEESIRESLQKRE [SIR3] | 3.4 ± 0.085 | 3.28 ± 0.088 | 3.09 ± 0.12 | 3.36 ± 0.062 |
| PNFEASFVHGVVGQLFQ [SMC2] | 1.61 ± 0.098 | 2.56 ± 0.11 | 2.58 ± 0.1 | 3.18 ± 0.12 |
| HYMVHEALNLLKFFLVD [LIN1] | 2.19 ± 0.053 | 1.7 ± 0.043 | 1.79 ± 0.081 | 2.11 ± 0.058 |
| TWENEFLDSQRVWAEYA [PRP8] | 2.14 ± 0.088 | 2.27 ± 0.072 | 2.13 ± 0.11 | 2.89 ± 0.11 |
| GSLKLPNCPRPNMSICI [RPL1A] | 2.62 ± 0.082 | 2.67 ± 0.05 | 2.95 ± 0.065 | 2.98 ± 0.05 |
| DQAIVTETKRLVVIRFG [DIB1] | 2 ± 0.071 | 2.23 ± 0.062 | 2.03 ± 0.1 | 2.45 ± 0.067 |
| QSVEEKVLEMKNLKDTA [YIL149C/MLP2] | 2.81 ± 0.25 | 2.58 ± 0.2 |  | 2.78 ± 0.089 |
| DLEKLLEMSTEDFVKLA [RPS15] | 3.11 ± 0.15 | 3.13 ± 0.12 | 3.44 ± 0.12 | 3.28 ± 0.08 |
| LDIPNVSLVVNFQISKK [PRP28] | 2.32 ± 0.067 | 2.51 ± 0.077 | 2.35 ± 0.087 | 2.71 ± 0.069 |
| FIDHHAAIRQPTRYVLI [POP1] | 1.72 ± 0.066 | 2.08 ± 0.073 | 1.77 ± 0.098 | 1.4 ± 0.047 |
| KGKKYQPKDLRAKKTRA [RPL35A] | 2.85 ± 0.25 | 2.98 ± 0.14 | 2.46 ± 0.13 | 2.89 ± 0.12 |
| QRITIPNVCNMKQYRDF [PRP28] | 2.85 ± 0.18 | 2.55 ± 0.092 | 2.07 ± 0.11 | 2.58 ± 0.11 |
| KRFKRKDNAKISNNLAL [SRP68] | 2.31 ± 0.054 | 2.59 ± 0.067 | 2.26 ± 0.079 | 1.95 ± 0.045 |
| FEGWGHEYIRHLALEIG [RPN1] | 2.18 ± 0.098 | 2.06 ± 0.071 | 2.41 ± 0.12 | 2.1 ± 0.083 |
| KTKEAVAALKAVGAHSD [RPL4A] | 3.47 ± 0.087 | 3.51 ± 0.067 | 3.08 ± 0.096 | 3.38 ± 0.062 |
| MFKLGNFESPVLKELSR [YLR018C/POM34] |  | 3.37 ± 0.23 | 2.85 ± 0.15 | 2.66 ± 0.16 |
| LKENNAILQKSLKNVTE [YIL149C/MLP2] | 2.67 ± 0.049 | 2.57 ± 0.057 | 2.89 ± 0.038 | 2.75 ± 0.044 |
| NYLRQQCNYSSLVFNRK [PRE5] | 2.71 ± 0.17 | 2.94 ± 0.11 |  | 2.75 ± 0.088 |
| NPFEDDMDGVDFNQAFE [BRN1] | 3.31 ± 0.05 | 3.21 ± 0.064 | 3.39 ± 0.038 | 3.3 ± 0.049 |

| Sequence | protein stability index (doa10∆) | protein stability index (pdr5∆) | protein stability index (san1∆) | protein stability index (ubr1∆) |
| --- | --- | --- | --- | --- |
| SLLAMHKHNIMKNENAN [CDC53] | 2.2 ± 0.064 | 2.58 ± 0.066 | 2.82 ± 0.072 | 3.05 ± 0.046 |
| FKKAAPSPISHVAEIRS [RPB2] | 1.92 ± 0.051 | 1.94 ± 0.046 | 1.77 ± 0.058 | 1.81 ± 0.036 |
| KEAAAIAEGKSKQDASP [RPL8B] | 2.96 ± 0.1 | 3.35 ± 0.083 | 2.99 ± 0.068 | 3.06 ± 0.062 |
| FGQDVSPMINSTSSGKV [SNM1] | 2.81 ± 0.1 | 3.32 ± 0.077 | 2.74 ± 0.067 | 3.02 ± 0.057 |
| QFLYEKHYKNIPRNSPL [RPC82] | 1.92 ± 0.068 | 1.9 ± 0.056 | 1.68 ± 0.066 | 2.08 ± 0.035 |
| DSFIFDGTAKEVGDEAD [MED4] | 3.22 ± 0.062 | 3.31 ± 0.057 | 3.38 ± 0.05 | 3.11 ± 0.051 |
| VEELPTFHDYDMVKLDI [RRP42] | 2.51 ± 0.055 | 2.75 ± 0.063 | 2.87 ± 0.045 | 3.13 ± 0.033 |
| KKPSPQTIPIQIYGFEG [YGR119C/NUP57] | 2.61 ± 0.26 | 3.06 ± 0.22 | 2.49 ± 0.15 | 3.08 ± 0.17 |
| DAIAVTKGHGFEGVTHR [RPL3] | 3.06 ± 0.11 | 3.19 ± 0.11 | 3.37 ± 0.1 | 3.36 ± 0.077 |
| ARYNWICDPVHKHREAR [RPL15A] | 3.51 ± 0.12 | 2.81 ± 0.13 | 2.98 ± 0.12 | 3.22 ± 0.096 |
| IKVDGAVGNLGNAIEVT [RPL22B] | 1.74 ± 0.12 | 2.4 ± 0.076 | 1.8 ± 0.14 | 1.58 ± 0.047 |
| NTSVLMKLKLMIVYYKD [YCS4] | 1.56 ± 0.15 | 1.56 ± 0.12 | 1.32 ± 0.21 | 1.29 ± 0.11 |
| PYFDYIFNDILAHVDQI [YJL039C/NUP192] | 1.9 ± 0.11 | 1.89 ± 0.077 | 2.39 ± 0.099 | 1.94 ± 0.054 |
| KRAFENFKKFNERRKDL [SMC3] | 3.45 ± 0.078 | 3.26 ± 0.068 | 3.51 ± 0.068 | 3.15 ± 0.075 |
| NKINSRNSWNFALIDYF [BRN1] | 2.13 ± 0.2 | 1.27 ± 0.075 | 1.11 ± 0.11 | 1.1 ± 0.073 |
| VSSTIPRETIPFLHLRK [FAS2] | 2.93 ± 0.27 | 2.35 ± 0.13 | 2.79 ± 0.16 | 2.6 ± 0.15 |
| KRELLKRYRLKESQLPR [RPB5] | 3.19 ± 0.2 | 3.29 ± 0.14 |  | 3.58 ± 0.14 |
| AFTRKQANQVKRHSYAQ [RPS1A] | 1.8 ± 0.024 | 1.75 ± 0.024 | 2.03 ± 0.034 | 2.01 ± 0.027 |
| QESSSLRLLEVTDDDRL [POP8] | 2.1 ± 0.068 | 2.08 ± 0.078 | 2.5 ± 0.12 | 1.65 ± 0.068 |
| HCDKCSVVLTLQAFGES [RPB3] | 3.1 ± 0.15 | 3.19 ± 0.14 | 2.47 ± 0.19 | 2.6 ± 0.17 |
| PRMYHIGLRQFQQIQYE [POP1] | 2.06 ± 0.098 | 1.67 ± 0.071 | 2.25 ± 0.095 | 1.48 ± 0.1 |
| KPEIDENGTLLVPPPRT [RPR2] | 3.02 ± 0.048 | 3.15 ± 0.051 | 2.99 ± 0.036 | 2.987 ± 0.029 |
| IVPSMTHLEIEPFTILG [RET1] | 1.49 ± 0.037 | 2.05 ± 0.055 | 2.29 ± 0.1 | 2.27 ± 0.035 |
| PNNSRDDYKDLTCSLYE [IRR1] | 3.11 ± 0.069 | 2.88 ± 0.069 | 3.18 ± 0.052 | 3.24 ± 0.087 |
| KPSRTSRQVQKRPRSRT [RPS7A] | 3.08 ± 0.092 | 2.44 ± 0.085 | 2.68 ± 0.061 | 1.95 ± 0.14 |
| VDQEMLYEIILAANYLN [SKP1] | 1.63 ± 0.051 | 1.72 ± 0.05 | 1.92 ± 0.093 | 1.84 ± 0.057 |
